Patent US20250297004A1, “NECTIN-4 BINDING AGENTS” (INNATE PHARMA, priority 2022, published 2025)
Where a chain is given by its changes, count along the chain named.

T1: human Nectin-4 (Homo sapiens, UniProt Q96NY8)
T1 sequence (Q96NY8 32-510): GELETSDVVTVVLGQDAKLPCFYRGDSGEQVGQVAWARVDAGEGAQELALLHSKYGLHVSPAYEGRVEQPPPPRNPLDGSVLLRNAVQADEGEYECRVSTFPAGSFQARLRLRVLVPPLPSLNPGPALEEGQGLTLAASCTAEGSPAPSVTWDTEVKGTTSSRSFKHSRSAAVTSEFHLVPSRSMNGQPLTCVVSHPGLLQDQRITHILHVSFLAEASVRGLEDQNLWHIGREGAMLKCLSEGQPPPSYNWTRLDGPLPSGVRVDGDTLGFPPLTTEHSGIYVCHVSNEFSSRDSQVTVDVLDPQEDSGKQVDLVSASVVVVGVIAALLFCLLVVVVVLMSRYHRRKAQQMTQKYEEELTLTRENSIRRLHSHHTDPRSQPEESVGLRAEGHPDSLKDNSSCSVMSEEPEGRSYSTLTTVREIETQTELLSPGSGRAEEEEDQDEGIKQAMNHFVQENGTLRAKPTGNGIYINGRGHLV

T2: human Nectin-4 expressed on cells (human, UniProt Q96NY8 32-510)
T2 sequence: T1 sequence (Q96NY8 32-510)

B1: H7L1 (antibody, human IgG1, V domains shown)
VH: QVQLVQSGAEVKKPGASVKVSCKASGYIFTSYWMHWVKQRPGQGLEWIGEIDPSDSYTNYNQKFKGRVTLTLDKSTSTTYMELSSLRSEDTAVYYCARGYGNYGDYWGQGTLVTVSS
VL: DVVMTQSPLSLPVTPGEPASISCRSSKSLLHSNGITYLYWYLQKPGQSPQLLIYQMSNLASGVPDRFSSSGSGTDFTLKISRVEAEDVGVYYCAQNLELPWTFGGGTKVEIK
notes: human IgG1 isotype
B2: H7L3 (antibody, human IgG1, V domains shown)
VH: B1 VH
VL: B1 VL with P8A, L11N
notes: human IgG1 isotype
B3: H7L2 (antibody, human IgG1, V domains shown)
VH: B1 VH
VL: B1 VL with L11N
notes: human IgG1 isotype
B4: H8L1 (antibody, human IgG1, V domains shown)
VH: B1 VH with R40A, L70M
VL: B1 VL
notes: human IgG1 isotype

Assays:
[1] = tested on: SUM190 cells subcutaneously engrafted in CB17-SCID mice; experiment: In vivo efficacy of ggfg-Dxd ADCs, Nectin-4 low/SUM190 mouse model of human breast cancer; conditions: single i.v. injection 3 mg/kg; each antibody conjugated to ggfg-Dxd, DAR=8; FIG. 4
Description: SUM190 cells were subcutaneously engrafted in CB17-SCID immunodeficient mice at a dose of 0.5 million cells in 100 μl of Matrigel with growth factor diluted at ½ in PBS. When tumors reached a volume between 195 and 250 mm3, mice were randomized into groups of 9 mice for intravenous treatment with a single injection of 3 mg/kg of camptothecin ADCs. Tumor growths were followed twice a week. Kaplan Meier survival curves were established by using GraphPad Prism V7 software according to the following criteria: When the tumor volume reached 1500 mm3, mice were euthanized and considered dead on the day of sacrifice (D).

[2] = target: T1, human Nectin-4; experiment: Binding to human Nectin-4 by SPR; conditions: second set (Table 7); for ka: SPR association constant; for kd: SPR dissociation constant; for Kd: SPR, human IgG1 isotype antibodies
Description: The antibodies in Table 3 of Example 3 were cloned as human IgG1 isotype antibodies, produced and purified, then tested for binding to human Nectin-4. Affinity of the 16 humanized variants, as well as their association and dissociation constants were assessed by SPR analysis. Table 4 summarizes all the calculated constants (Affinity constant KD (nM), association constant ka (1/Ms) and dissociation constant kd (1/s)).
The antibodies in Table 6 of Example 5 were cloned as human IgG1 isotype antibodies, produced and purified, then tested for binding to human Nectin-4. Affinity of the 16 humanized variants, as well as their association and dissociation constants were assessed by SPR analysis. Table 7 summarizes all the calculated constants (Affinity constant KD (nM), association constant ka (1/Ms) and dissociation constant kd (1/s)).

[3] = target: T2, human Nectin-4 expressed on cells; experiment: cell-based or functional assay
[4] = target: T2, human Nectin-4 expressed on cells; experiment: flow cytometry on SUM190 cells, MedFI at saturation
Description: The humanized antibodies in Table 3 of Example 3 and in Table 6 of Example 5 were cloned, produced and purified, then tested for binding to Nectin-4 expressing cells by flow cytometry. Binding of humanized variants in human IgG1 format was determined on the SUM190 cell line expressing high levels of Nectin-4.

[5] = target: human Nectin-4 (protein used in the SPR affinity measurements) (human) (UniProt Q96NY8); experiment: SPR, human IgG1
[6] = target: T2, human Nectin-4 expressed on cells; experiment: cell-based or functional assay; remark: listed apart in the source

Molecule	control of tumor growth [1]	ka [2] [M⁻¹ s⁻¹]	kd [2] [s⁻¹]	Kd [2] [nM]	internalization efficiency on MDA-MB-468, normalized to chimeric parental antibody (Fab-ZAP, CTG), first column [3]	internalization efficiency on MDA-MB-468, normalized to chimeric parental antibody (Fab-ZAP, CTG), second column [3]	Max MedFi [4] [MedFI]	Kd [5] [nM]	koff [5] [s⁻¹]	kon [5] [M⁻¹ s⁻¹]	internalization efficiency on SUM190, normalized to chimeric parental antibody (Fab-ZAP, CTG), experiment 1 [6]	internalization efficiency on SUM190, normalized to chimeric parental antibody (Fab-ZAP, CTG), experiment 2 [6]
enfortumab [reference compound]	no longer showed the ability to control tumor growth	–	–	–	–	–	–	–	–	–	–	–
B1	–	200000	0.006	29.7	79 % of chimeric parental	79 % of chimeric parental	17800	29.7	0.006	200000	129 % of chimeric parental	73.1 % of chimeric parental
B2	–	110000	0.0055	49	51.8 % of chimeric parental	51.8 % of chimeric parental	25000	49	0.0055	110000	88.5 % of chimeric parental	61.3 % of chimeric parental
B3	–	160000	0.0063	39.5	58.7 % of chimeric parental	58.7 % of chimeric parental	23400	39.5	0.0063	160000	89.6 % of chimeric parental	74.8 % of chimeric parental
B4	–	250000	0.0048	19.2	71.2 % of chimeric parental	71.2 % of chimeric parental	17300	19.2	0.0048	250000	132 % of chimeric parental	65.2 % of chimeric parental
